Laboratory results published in the supplement of paper PMC10567573.

B1: NEK8 (parent)
chain: YTFGSNQHGQLGTNTRRGSRAPCK

Variants of: B1
Experiment: protein stability index of a GFP-peptide fusion (GPS, HEK-293T) (PSI 1-6); higher = more stable
Settings: c terminus: a fixed tail appended
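Further: lentivirally expressed fusions sorted by FACS into six bins by GFP to DsRed ratio, PSI derived from sequencing read proportions per bin multiplied by bin number.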

Point of comparison: MTFGSNQHGQLGTNTRRGSRAPCK, protein stability index 4.31. Against it:
- YEFGSNQHGQLGTNTRRGSRAPCK — higher, 4.78
- YRFGSNQHGQLGTNTRRGSRAPCK — higher, 4.75
- YVFGSNQHGQLGTNTRRGSRAPCK — lower, 2.36
- YHFGSNQHGQLGTNTRRGSRAPCK — lower, 1.95
- YDFGSNQHGQLGTNTRRGSRAPCK — higher, 4.43
- YQFGSNQHGQLGTNTRRGSRAPCK — lower, 3.5
- YYFGSNQHGQLGTNTRRGSRAPCK — lower, 4.24
- YMFGSNQHGQLGTNTRRGSRAPCK — higher, 4.5
- YTFGSNQEGQLGTNTRRGSRAPCK — higher, 4.47
- YTFGSNQKGQLGTNTRRGSRAPCK — lower, 4
- YTFGSNQLGQLGTNTRRGSRAPCK — lower, 3.37
- YTFGSNQDGQLGTNTRRGSRAPCK — lower, 4.15
- YTFGSNQMGQLGTNTRRGSRAPCK — lower, 3.75
- YTFGSNQFGQLGTNTRRGSRAPCK — lower, 3.23
- YTFGSNQAGQLGTNTRRGSRAPCK — lower, 3.98
- YTFGSNQGGQLGTNTRRGSRAPCK — lower, 3.61
- YTFGSNQIGQLGTNTRRGSRAPCK — lower, 3.48
- YTFGSNQCGQLGTNTRRGSRAPCK — lower, 3.94
- YTFHSNQHGQLGTNTRRGSRAPCK — lower, 3.91
- YTFMSNQHGQLGTNTRRGSRAPCK — lower, 3.44
- YTFESNQHGQLGTNTRRGSRAPCK — higher, 4.33
- YTFKSNQHGQLGTNTRRGSRAPCK — lower, 3.6
- YTFYSNQHGQLGTNTRRGSRAPCK — lower, 3.42
- YTFCSNQHGQLGTNTRRGSRAPCK — lower, 2.91
- YTFLSNQHGQLGTNTRRGSRAPCK — lower, 3.99
- YTFWSNQHGQLGTNTRRGSRAPCK — lower, 2.91
- YTFISNQHGQLGTNTRRGSRAPCK — lower, 3.72
- YTFPSNQHGQLGTNTRRGSRAPCK — lower, 4.19
- YTFDSNQHGQLGTNTRRGSRAPCK — higher, 4.39
- YTFSSNQHGQLGTNTRRGSRAPCK — lower, 3.66
- YTFFSNQHGQLGTNTRRGSRAPCK — lower, 3.64
- YTFVSNQHGQLGTNTRRGSRAPCK — lower, 4.2
- YTFRSNQHGQLGTNTRRGSRAPCK — higher, 4.36
- YTFASNQHGQLGTNTRRGSRAPCK — lower, 3.44
- YTFNSNQHGQLGTNTRRGSRAPCK — lower, 3.82
- YTFQSNQHGQLGTNTRRGSRAPCK — lower, 4.04
- YTFTSNQHGQLGTNTRRGSRAPCK — lower, 3.54
- YTFGANQHGQLGTNTRRGSRAPCK — lower, 3.63
- YTFGPNQHGQLGTNTRRGSRAPCK — lower, 3.84
- YTFGHNQHGQLGTNTRRGSRAPCK — lower, 3.66
- YTFGNNQHGQLGTNTRRGSRAPCK — lower, 4.14
- YTFGWNQHGQLGTNTRRGSRAPCK — lower, 2.67
- YTFGCNQHGQLGTNTRRGSRAPCK — lower, 3.72
- YTFGINQHGQLGTNTRRGSRAPCK — lower, 3.44
- YTFGTNQHGQLGTNTRRGSRAPCK — higher, 4.36
- YTFGRNQHGQLGTNTRRGSRAPCK — lower, 3.96
- YTFGVNQHGQLGTNTRRGSRAPCK — lower, 4.09
- YTFGKNQHGQLGTNTRRGSRAPCK — lower, 3.5
- YTFGENQHGQLGTNTRRGSRAPCK — higher, 4.61
- YTFGDNQHGQLGTNTRRGSRAPCK — higher, 4.53
- YTFGMNQHGQLGTNTRRGSRAPCK — lower, 4.11
- YTFGLNQHGQLGTNTRRGSRAPCK — lower, 3.62
- YTFGQNQHGQLGTNTRRGSRAPCK — lower, 4.01
- YTFGGNQHGQLGTNTRRGSRAPCK — lower, 3.86
- YTFGFNQHGQLGTNTRRGSRAPCK — lower, 2.23
- YTFGYNQHGQLGTNTRRGSRAPCK — lower, 2.49
- ETFGSNQHGQLGTNTRRGSRAPCK — higher, 4.47
- FTFGSNQHGQLGTNTRRGSRAPCK — lower, 3.66
- NTFGSNQHGQLGTNTRRGSRAPCK — higher, 5.24
- QTFGSNQHGQLGTNTRRGSRAPCK — higher, 4.99
- HTFGSNQHGQLGTNTRRGSRAPCK — higher, 4.54
- CTFGSNQHGQLGTNTRRGSRAPCK — lower, 4.11
- TTFGSNQHGQLGTNTRRGSRAPCK — higher, 4.49
- LTFGSNQHGQLGTNTRRGSRAPCK — lower, 4.13
- GTFGSNQHGQLGTNTRRGSRAPCK — higher, 5.09
- ATFGSNQHGQLGTNTRRGSRAPCK — higher, 4.81
- PTFGSNQHGQLGTNTRRGSRAPCK — higher, 4.52
- DTFGSNQHGQLGTNTRRGSRAPCK — higher, 4.96
- ITFGSNQHGQLGTNTRRGSRAPCK — higher, 4.34
- STFGSNQHGQLGTNTRRGSRAPCK — higher, 4.89
- KTFGSNQHGQLGTNTRRGSRAPCK — higher, 4.79
- WTFGSNQHGQLGTNTRRGSRAPCK — lower, 4.28
- VTFGSNQHGQLGTNTRRGSRAPCK — higher, 4.6
- RTFGSNQHGQLGTNTRRGSRAPCK — higher, 4.64
- YTKGSNQHGQLGTNTRRGSRAPCK — higher, 4.32
- YTIGSNQHGQLGTNTRRGSRAPCK — lower, 3.89
- YTGGSNQHGQLGTNTRRGSRAPCK — lower, 2.29
- YTCGSNQHGQLGTNTRRGSRAPCK — lower, 3.58
- YTDGSNQHGQLGTNTRRGSRAPCK — lower, 4.11
- YTTGSNQHGQLGTNTRRGSRAPCK — lower, 3.77
- YTHGSNQHGQLGTNTRRGSRAPCK — lower, 3.94
- YTWGSNQHGQLGTNTRRGSRAPCK — lower, 2.06
- YTYGSNQHGQLGTNTRRGSRAPCK — lower, 3.54
- YTRGSNQHGQLGTNTRRGSRAPCK — lower, 3.92
- YTEGSNQHGQLGTNTRRGSRAPCK — higher, 4.32
- YTLGSNQHGQLGTNTRRGSRAPCK — lower, 3.99
- YTAGSNQHGQLGTNTRRGSRAPCK — lower, 3.31
- YTQGSNQHGQLGTNTRRGSRAPCK — lower, 3.69
- YTMGSNQHGQLGTNTRRGSRAPCK — lower, 4.13
- YTPGSNQHGQLGTNTRRGSRAPCK — lower, 2.02
- YTVGSNQHGQLGTNTRRGSRAPCK — lower, 3.98
- YTNGSNQHGQLGTNTRRGSRAPCK — lower, 3.95
- YTSGSNQHGQLGTNTRRGSRAPCK — lower, 3.2
